T1: human CAPRIN-1 protein on the cell membrane surface of human cancer cell lines (human, UniProt Q14444 2-709)
T1 sequence (looked up): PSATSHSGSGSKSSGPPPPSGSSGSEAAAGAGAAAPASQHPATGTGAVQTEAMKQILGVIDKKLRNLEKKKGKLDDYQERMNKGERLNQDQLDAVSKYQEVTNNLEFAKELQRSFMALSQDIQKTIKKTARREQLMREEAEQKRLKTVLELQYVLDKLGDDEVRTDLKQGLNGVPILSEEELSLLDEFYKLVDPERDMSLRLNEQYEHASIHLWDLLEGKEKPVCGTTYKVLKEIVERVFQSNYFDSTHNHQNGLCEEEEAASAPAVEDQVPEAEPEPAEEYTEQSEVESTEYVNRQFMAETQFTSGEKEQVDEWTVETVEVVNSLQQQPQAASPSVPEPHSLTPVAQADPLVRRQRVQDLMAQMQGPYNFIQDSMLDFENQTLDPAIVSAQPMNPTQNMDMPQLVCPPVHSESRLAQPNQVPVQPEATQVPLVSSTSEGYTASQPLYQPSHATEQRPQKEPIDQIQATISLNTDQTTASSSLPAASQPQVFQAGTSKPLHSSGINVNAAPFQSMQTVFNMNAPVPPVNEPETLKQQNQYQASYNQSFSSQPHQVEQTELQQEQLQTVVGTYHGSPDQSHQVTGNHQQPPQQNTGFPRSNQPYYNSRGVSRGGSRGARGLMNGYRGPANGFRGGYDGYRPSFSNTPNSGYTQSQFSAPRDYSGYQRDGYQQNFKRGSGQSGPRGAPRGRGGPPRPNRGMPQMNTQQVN


Target: T1, human CAPRIN-1 protein on the cell …
Test: cell-based or functional assay

| Binder | cytotoxic activity (ADCC, chromium 51 release) against MCF7, HCT-116, MIAPaCa-2, Caki-2 and QG56 [%] |
| --- | --- |
| human-mouse chimeric comparative monoclonal antibody 1 (antibody) heavy: not shown light: DIQMTQSPASLSASVGETVTITCRASGNIHNYLAWYQQKQGKSPQLLVYNAKTLADGVPSRFSGSGSGTQYSLKINSLQPEDFGSYYCQHFWSTLTFGAGTKLELKRTVAAPSVFIFPPSDEQLKSGTASVVCLLNNFYPREAKVQWKVDNALQSGNSQESVTEQDSKDSTYSLSSTLTLSKADYEKHKVYACEVTHQGLSSPVTKSFNRGEC | < 5 |
| human-mouse chimeric comparative monoclonal antibody 4 (antibody, human IgG1, kappa, V domains shown) VH: EVQLHQFGAELVKPGASVKISCKASGYTFTDYNMDWVKQSHGKSLEWIGDINPNYDSTSYNQKFKGKATLTVDKSSSTAYMELRSLTSEDTAVYYCARSRSYDYEGFAYWGQGTLVTVSA VL: SGDRVSLSCRASQSISNYLHWYQQKSHESPRLLIKYASQSISGIPSRFSGSGSGTDFTLSINSVETEDFGMYFCQQSNSWPYTFGAGTKLEIKQ | < 5 |
| human-mouse chimeric comparative monoclonal antibody 7 (antibody, human IgG1, kappa, V domains shown) VH: LQESGAELARPGASVKLSCKASGYTFTSYWMQWVKQRPGQGLEWIGAIYPGDGDTRYTQKFKGKATLTADKSSSTAYMQLSSLASEDSAVYYCARGEYGNYFAYWGQGTTVTVSS VL: TSDASLGERVTITCKASQDINSYLSWFQQKPGKSPKTLIYRANRLVDGVPSRFSGSGSGQDYSLTISSLEYEDMGIYYCLQYDEFPLTFGGGTKLEIKQ | < 5 |
| human-mouse chimeric comparative monoclonal antibody 3 (antibody, human IgG1, kappa) heavy: not shown light: RTTSHMDSDIQLTQSPASLSASVGETVTITCRASGNIHNYLAWYQQKQGKSPQLLVYNAKTLADGVPSRFSGSGSGTQYSLKINSLQPEDFGSYYCQHFWSTLTFGGGTKLEIKQSDTVAAPSVFIFPPSDEQLKSGTASVVCLLNNFYPREAKVQWKVDNALQSGNSQESVTEQDSKDSTYSLSSTLTLSKADYEKHKVYACEVTHQGLSSPVTKSFNRGEC | < 5 |
